Results reported in article PMC8133395 (Cell reports, 2021).

Molecular target: T1, EBOV sGP (Mayinga) (Zaire ebolavirus, Mayinga, GenBank …, UniProt P60170)
T1 construct: source: FreeStyle-293-F, transiently transfected, purified (Strep-Tactin, SEC)
Test: ELISA
Conditions: both partners purified

T1 sequence (P60170 33-314): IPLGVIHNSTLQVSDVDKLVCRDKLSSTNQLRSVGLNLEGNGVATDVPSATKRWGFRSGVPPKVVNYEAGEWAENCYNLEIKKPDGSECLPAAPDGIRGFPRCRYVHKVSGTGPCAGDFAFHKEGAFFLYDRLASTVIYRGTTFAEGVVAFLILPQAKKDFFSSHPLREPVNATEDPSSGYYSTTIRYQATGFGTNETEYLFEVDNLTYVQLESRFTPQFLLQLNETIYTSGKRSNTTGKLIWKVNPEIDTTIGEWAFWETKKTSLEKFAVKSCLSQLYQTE

Row | Binder | binding result
1 | EBOV-293 (recombinant IgG1) (antibody, V domains shown, source: FreeStyle-293-F, transiently transfected, purified (mAb Select, SEC)) VH: QVQLVQSGAEVKKPGSSVKVSCKASGGTFIDYTYNWVRQAPGQGLVWMGRVVPGLGLSSYAQQFEDRVTITAAKSTSTVYMELRGLTSEDTAMYYCARDTASFGWLPFAFWGQGTLVTVSS VL: QTVMTQSPGTLSLSPGERATLSCGVSQSISSTYFAWYQQKVGQAPRLLIYGASNRASGIPDRFSGSASGTDFTLTISRVEPEDFAVYYCQQYGSSPTFGQGTRLEIK | binds
2 | BDBV-289 (recombinant IgG1) (antibody, V domains shown, IgG1; source: FreeStyle-293-F, transiently transfected, purified (mAb Select, SEC)) VH: QVQLVQSGAEVKKPGSSVKVSCKASGATFGSDTVTWVRQAPGQGLEWMGGIIPFFGEANYAQRFQGRVTITADKSTNTAYMELSSLRSEDTAVYFCARQINEMATFGEIHYYTYMDVWGQGTLVTVSS VL: GSELTQDPAVSVALGQTVRITCQGDSLRNYYASWYQQKPRQAPVLVFYGKNNRPSGIPDRFSGSSSGNTASLTISGAQAEDEADYYCNSRDSSSNHLVFGGGTKLTVL | binds
3 | EBOV-442 (recombinant IgG1) (antibody, V domains shown, IgG1; source: ExpiCHO, transiently transfected, purified (HiTrap MabSelect Sure)) VH: EVQLVESGGGLVKPGGSLRLSCTGSGGTGFTFKYAGMSWVRQAPGKGPEWIGRIKSRIDGGTTDYAAPVKDRFIVSRDDSRNTLYLQMNSLKTEDTAVYYCATGSGKGPSASFGESYYYYDFINVWGKGTTVTVSS VL: ESVLTQSPGTLSLSPGERATLSCRASQSISRKYLAWYQQKPGQAPRLLIYGSSSRATGIPDRFSGSGSGTDFTLTISRLEPEDFAVYYCHQYESSPWTFGQGTKVEIK | binds
4 | BDBV-329 (recombinant IgG1) (antibody, V domains shown, IgG1; also called BDB-329; source: ExpiCHO, transiently transfected, purified (HiTrap MabSelect Sure)) VH: QVQLVQSGAEVKKPGSSVKVSCKASGGTFDTYAISWVRQAPGQGLEWMGGIIPVLGIVDYAQKFQGRVTITAAKFTNIAYMELSSLRSEDAAVYYCARGLRSLSPRGQEGPTPAPGWRRAQYHYYYMDVWGTGTLVTVSS VL: EIVMTQSPGTLSLSPGERATLSCRASQSVSSNYLAWYQQKPGQAPRLLIYGASSRATGIPDRFSGSGSGPDFTLTISRLEPEDFAVYYCQQYGSSPGTFGGGTKVEIK | binds
5 | EBOV-437 (recombinant IgG1) (antibody, V domains shown, IgG1; source: ExpiCHO, transiently transfected, purified (HiTrap MabSelect Sure)) VH: QVQLVQSGAEVKKPGSSVKVSCKASGGTFSRDIFSWVRQAPGQGLEWMGGIIPIFGTANYAQKFQGRVTITADKSTSTVFMELSGLRSEDTAVYFCARGPPLRGERSWFGESEKYDYFYMDVWGKGTTVTVSS VL: QIVLTQSPGTLSLSPGERATLSCRASQSVSNSYLAWYQQKPGQAPRLLIYGASSRATGIPDRFSGSGSGTDFTLSISRLEPEDFAVYYCQQYGTSPCTFGQGTKLEIK | binds
6 | EBOV-296 (recombinant IgG1) (antibody, V domains shown, source: FreeStyle-293-F, transiently transfected, purified (mAb Select, SEC)) VH: QVQLVESGPGLVKPSQTLSLICTVSGGSISSGDFYWSWIRQPPGKGLEWIGFFYYSGITYYNPSLKSRVSISRDTSTNQFSLKLRSVTAADTAVYYCARVRGGRITLGQGDMYYYSGMDVWGQGTLVTVSS VL: not shown | binds
7 | BDBV-43 (recombinant IgG1) (antibody, V domains shown, source: FreeStyle-293-F, transiently transfected, purified (mAb Select, SEC)) VH: QVQLVQSGAEVKKPGSSVKVSCRASGDSFSRKYGISWVRQAPGQGFEWMGTIMPIVGLTTSAQKFQGRVTITADKSTSTAHMELNSLTSEDTAIYYCARDEIIGARPHWFDSWGQGTLVTVSS VL: EIVMTQSPAIMSVSPGKRATLSCRASQSVSSNLAWYQRKPGQAPRLLIYGSSTRATGIPARFSGSGSGTEFTLTISSLQSEDFAVYYCLQYYNWPRTFGQGTKVEIK | binds
8 | EBOV-237 (recombinant IgG1) (antibody, V domains shown, IgG1; source: ExpiCHO, transiently transfected, purified (HiTrap MabSelect Sure)) VH: QVQLQESGPGLVKPSGTLSLTCAVSGGSISNGIWWSWVRQPPGKGLEWIGEIYHSGSTNYSPSLKSRVTISLDKSKNQFSLKLNSVTAADTAVYYCARAPSQFDFSDWLVPQGAMFRGHYIDYWGQGTLVTVSS VL: not shown | binds
